# Patent US20130266517A1 (published 2013)
# B1: Humanized 1H7 H2L1 (Hu1H7VHv2-Hu1H7VLv1) (antibody, V domains shown)
# VH: QVQLVQSGAEVKKPGASVKVSCKASGYSFTSYYIHWVRQAPGQGLEWIGWIYPGSGNTKYSEKFKGRATLTADTSTSTAYMELRSLRSDDTAVYFCARDGCYGFAYWGQGTLVTVSS
# VL: DIQLTQSPSSLSASVGDRVTITCKASQSVDYDGDSYMNWYQQKPGKAPKFLICAASNLESGVPSRFSGSGSGTDFTLTISSLQPEDAATYYCQQSNEDPFTFGQGTKLEIK
# B2: Humanized 1H7 H1L1 (Hu1H7VHv1-Hu1H7VLv1) (antibody, V domains shown)
# VH: QVQLVQSGAELKKPGASVKVSCKASGYSFTSYYIHWVKQAPGQGLEWIGWIYPGSGNTKYSEKFKGRATLTADTSTSTAYMELRSLRSDDTAVYFCARDGCYGFAYWGQGTLVTVSS
# VL: DIQLTQSPSSLSASVGDRVTITCKASQSVDYDGDSYMNWYQQKPGKAPKFLICAASNLESGVPSRFSGSGSGTDFTLTISSLQPEDAATYYCQQSNEDPFTFGQGTKLEIK
# B3: Humanized 1H7 H1L2 (Hu1H7VHv1-Hu1H7VLv2) (antibody, V domains shown)
# VH: QVQLVQSGAELKKPGASVKVSCKASGYSFTSYYIHWVKQAPGQGLEWIGWIYPGSGNTKYSEKFKGRATLTADTSTSTAYMELRSLRSDDTAVYFCARDGCYGFAYWGQGTLVTVSS
# VL: DIQLTQSPSSLSASVGDRVTITCKASQSVDYDGDSYMNWYQQKPGKAPKFLIYAASNLESGVPSRFSGSGSGTDFTLTISSLQPEDAATYYCQQSNEDPFTFGQGTKLEIK
# B4: Humanized 1H7 H1L3 (Hu1H7VHv1-Hu1H7VLv3) (antibody, V domains shown)
# VH: QVQLVQSGAELKKPGASVKVSCKASGYSFTSYYIHWVKQAPGQGLEWIGWIYPGSGNTKYSEKFKGRATLTADTSTSTAYMELRSLRSDDTAVYFCARDGCYGFAYWGQGTLVTVSS
# VL: DIQLTQSPSSLSASVGDRVTITCKASQSVDYDGDSYMNWYQQKPGKAPKFLICAASNLESGVPSRFSGSGSGTDFTLTISSLQPEDFATYYCQQSNEDPFTFGQGTKLEIK
# B5: Humanized 1H7 H1L4 (Hu1H7VHv1-Hu1H7VLv4) (antibody, V domains shown)
# VH: QVQLVQSGAELKKPGASVKVSCKASGYSFTSYYIHWVKQAPGQGLEWIGWIYPGSGNTKYSEKFKGRATLTADTSTSTAYMELRSLRSDDTAVYFCARDGCYGFAYWGQGTLVTVSS
# VL: DIQLTQSPSSLSASVGDRVTITCKASQSVDYDGDSYMNWYQQKPGKAPKFLIYAASNLESGVPSRFSGSGSGTDFTLTISSLQPEDFATYYCQQSNEDPFTFGQGTKLEIK
# B6: Humanized 1H7 H2L2 (Hu1H7VHv2-Hu1H7VLv2) (antibody, V domains shown)
# VH: QVQLVQSGAEVKKPGASVKVSCKASGYSFTSYYIHWVRQAPGQGLEWIGWIYPGSGNTKYSEKFKGRATLTADTSTSTAYMELRSLRSDDTAVYFCARDGCYGFAYWGQGTLVTVSS
# VL: DIQLTQSPSSLSASVGDRVTITCKASQSVDYDGDSYMNWYQQKPGKAPKFLIYAASNLESGVPSRFSGSGSGTDFTLTISSLQPEDAATYYCQQSNEDPFTFGQGTKLEIK
# B7: Humanized 1H7 H3L1 (Hu1H7VHv3-Hu1H7VLv1) (antibody, V domains shown)
# VH: QVQLVQSGAEVKKPGASVKVSCKASGYTFTSYYIHWVRQAPGQGLEWMGWIYPGSGNTKYSEKFKGRATMTADTSTSTAYMELRSLRSDDTAVYYCARDGCYGFAYWGQGTLVTVSS
# VL: DIQLTQSPSSLSASVGDRVTITCKASQSVDYDGDSYMNWYQQKPGKAPKFLICAASNLESGVPSRFSGSGSGTDFTLTISSLQPEDAATYYCQQSNEDPFTFGQGTKLEIK
# B8: Humanized 1H7 H3L3 (Hu1H7VHv3-Hu1H7VLv3) (antibody, V domains shown)
# VH: QVQLVQSGAEVKKPGASVKVSCKASGYTFTSYYIHWVRQAPGQGLEWMGWIYPGSGNTKYSEKFKGRATMTADTSTSTAYMELRSLRSDDTAVYYCARDGCYGFAYWGQGTLVTVSS
# VL: DIQLTQSPSSLSASVGDRVTITCKASQSVDYDGDSYMNWYQQKPGKAPKFLICAASNLESGVPSRFSGSGSGTDFTLTISSLQPEDFATYYCQQSNEDPFTFGQGTKLEIK
# B9: Humanized 1H7 H4L1 (Hu1H7VHv4-Hu1H7VLv1) (antibody, V domains shown)
# VH: QVQLVQSGAEVKKPGASVKVSCKASGYSFTSYYIHWVRQAPGQGLEWIGWIYPGSGNTKYSEKFKGRATLTADTSTSTAYMELRSLRSDDTAVYFCARDGSYGFAYWGQGTLVTVSS
# VL: DIQLTQSPSSLSASVGDRVTITCKASQSVDYDGDSYMNWYQQKPGKAPKFLICAASNLESGVPSRFSGSGSGTDFTLTISSLQPEDAATYYCQQSNEDPFTFGQGTKLEIK
# B10: Humanized 1H7 H4L2 (Hu1H7VHv4-Hu1H7VLv2) (antibody, V domains shown)
# VH: QVQLVQSGAEVKKPGASVKVSCKASGYSFTSYYIHWVRQAPGQGLEWIGWIYPGSGNTKYSEKFKGRATLTADTSTSTAYMELRSLRSDDTAVYFCARDGSYGFAYWGQGTLVTVSS
# VL: DIQLTQSPSSLSASVGDRVTITCKASQSVDYDGDSYMNWYQQKPGKAPKFLIYAASNLESGVPSRFSGSGSGTDFTLTISSLQPEDAATYYCQQSNEDPFTFGQGTKLEIK
# B11: Humanized 1H7 H4L3 (Hu1H7VHv4-Hu1H7VLv3) (antibody, V domains shown)
# VH: QVQLVQSGAEVKKPGASVKVSCKASGYSFTSYYIHWVRQAPGQGLEWIGWIYPGSGNTKYSEKFKGRATLTADTSTSTAYMELRSLRSDDTAVYFCARDGSYGFAYWGQGTLVTVSS
# VL: DIQLTQSPSSLSASVGDRVTITCKASQSVDYDGDSYMNWYQQKPGKAPKFLICAASNLESGVPSRFSGSGSGTDFTLTISSLQPEDFATYYCQQSNEDPFTFGQGTKLEIK
# B12: Humanized 1H7 H4L4 (Hu1H7VHv4-Hu1H7VLv4) (antibody, V domains shown)
# VH: QVQLVQSGAEVKKPGASVKVSCKASGYSFTSYYIHWVRQAPGQGLEWIGWIYPGSGNTKYSEKFKGRATLTADTSTSTAYMELRSLRSDDTAVYFCARDGSYGFAYWGQGTLVTVSS
# VL: DIQLTQSPSSLSASVGDRVTITCKASQSVDYDGDSYMNWYQQKPGKAPKFLIYAASNLESGVPSRFSGSGSGTDFTLTISSLQPEDFATYYCQQSNEDPFTFGQGTKLEIK
# B13: Humanized 1H7 H5L1 (Hu1H7VHv5-Hu1H7VLv1) (antibody, V domains shown)
# VH: QVQLVQSGAEVKKPGASVKVSCKASGYTFTSYYIHWVRQAPGQGLEWMGWIYPGSGNTKYSEKFKGRATMTADTSTSTAYMELRSLRSDDTAVYYCARDGSYGFAYWGQGTLVTVSS
# VL: DIQLTQSPSSLSASVGDRVTITCKASQSVDYDGDSYMNWYQQKPGKAPKFLICAASNLESGVPSRFSGSGSGTDFTLTISSLQPEDAATYYCQQSNEDPFTFGQGTKLEIK
# B14: Humanized 1H7 H5L2 (Hu1H7VHv5-Hu1H7VLv2) (antibody, V domains shown)
# VH: QVQLVQSGAEVKKPGASVKVSCKASGYTFTSYYIHWVRQAPGQGLEWMGWIYPGSGNTKYSEKFKGRATMTADTSTSTAYMELRSLRSDDTAVYYCARDGSYGFAYWGQGTLVTVSS
# VL: DIQLTQSPSSLSASVGDRVTITCKASQSVDYDGDSYMNWYQQKPGKAPKFLIYAASNLESGVPSRFSGSGSGTDFTLTISSLQPEDAATYYCQQSNEDPFTFGQGTKLEIK
# B15: Humanized 1H7 H5L3 (Hu1H7VHv5-Hu1H7VLv3) (antibody, V domains shown)
# VH: QVQLVQSGAEVKKPGASVKVSCKASGYTFTSYYIHWVRQAPGQGLEWMGWIYPGSGNTKYSEKFKGRATMTADTSTSTAYMELRSLRSDDTAVYYCARDGSYGFAYWGQGTLVTVSS
# VL: DIQLTQSPSSLSASVGDRVTITCKASQSVDYDGDSYMNWYQQKPGKAPKFLICAASNLESGVPSRFSGSGSGTDFTLTISSLQPEDFATYYCQQSNEDPFTFGQGTKLEIK
# B16: Humanized 1H7 H5L4 (Hu1H7VHv5-Hu1H7VLv4) (antibody, V domains shown)
# VH: QVQLVQSGAEVKKPGASVKVSCKASGYTFTSYYIHWVRQAPGQGLEWMGWIYPGSGNTKYSEKFKGRATMTADTSTSTAYMELRSLRSDDTAVYYCARDGSYGFAYWGQGTLVTVSS
# VL: DIQLTQSPSSLSASVGDRVTITCKASQSVDYDGDSYMNWYQQKPGKAPKFLIYAASNLESGVPSRFSGSGSGTDFTLTISSLQPEDFATYYCQQSNEDPFTFGQGTKLEIK
# B17: Murine 1H7 (antibody, mouse IgG1, V domains shown)
# VH: VQLQQSGPELVKPGTSVKISCKASGYSFTSYYIHWVKQSPGQGLEWIGWIYPGSGNTKYSEKFKGKATLTADTSSSTAYMQLSSLTSEDSAVYFCARDGCYGFAYWGQGTLVTVS
# VL: DIVLTQSPASLAVSLGQRATISCKASQSVDYDGDSYMNWYQQKPGQPPKFLICAASNLESGIPARFSGSGSGTDFTLNIHPVEEEDAATYYCQQSNEDPFTFGSGTKLEIK
# notes: Mouse IgG1; also called m1H7; mouse 1H7
# Experiments:
# [1] = target: T1, alpha-synuclein (natural human wildtype alpha-synuclein) (human, UniProt P37840 1-140); assay: BLI, ForteBio Octet QK; apparent ka
# Method: (§1) Binding kinetic of humanized 1H7 antibodies were also measured by bio-layer interferometry (BLI) using a ForteBio Octet QK instrument (ForteBio, Menlo Park, Calif.). Detailed binding kinetic parameters (association rate, apparent ka, dissociation rate, apparent kd, and affinity constant, apparent KD) were determined for chimeric 1H7 and various humanized 1H7 antibodies (Tables 6-7, FIGS. 4A-C). Apparent ka, apparent kd and apparent KD are binding kinetic parameters obtained using ForteBio assay formats. These parameters differ from ka, kd and KD measured using Biocore assays due to, e.g., avidity effects associated with ForteBio assay formats.
# [2] = target: T1, alpha-synuclein (natural human wildtype …); assay: BLI, ForteBio Octet QK; apparent kd
# Method: as §1
# [3] = target: T1, alpha-synuclein (natural human wildtype …); assay: BLI, ForteBio Octet QK; apparent KD
# Method: as §1
# [4] = target: T1, alpha-synuclein (natural human wildtype …); assay: Biacore (SPR) full kinetic analysis
# Method: Biacore full binding kinetic analysis of antibodies were carried out using Biacore. Detailed binding kinetic parameters (association rate, ka, dissociation rate, kd, and affinity constant, KD) were determined for murine 1H7 (FIG. 3A), chimeric 1H7 (FIG. 3B) and humanized 1H7 (Hu1H7VHv3-Hu1H7VLv3, Hu1H7VHv3-Hu1H7VLv1, Hu1H7VHv4-Hu1H7VLv1) antibodies (FIG. 3C).
Binder,kon [1],koff [2],Kd [3],Kd [4],koff [4],kon [4]
B1,580000 M⁻¹ s⁻¹,4.2e-06 s⁻¹,0.0072 nM,,,
B2,250000 M⁻¹ s⁻¹,0.0012 s⁻¹,4.8 nM,,,
B3,1.6e+06 M⁻¹ s⁻¹,0.009 s⁻¹,5.8 nM,,,
B4,220000 M⁻¹ s⁻¹,0.00064 s⁻¹,2.9 nM,,,
B5,1.8e+06 M⁻¹ s⁻¹,0.0058 s⁻¹,3.3 nM,,,
B6,2.3e+06 M⁻¹ s⁻¹,0.0046 s⁻¹,2 nM,,,
B7,,,,12 nM,0.013 s⁻¹,1.1e+06 M⁻¹ s⁻¹
B8,,,,9 nM,0.011 s⁻¹,1.3e+06 M⁻¹ s⁻¹
B9,,,,33.9 nM,0.033 s⁻¹,970000 M⁻¹ s⁻¹
B10,1.2e+06 M⁻¹ s⁻¹,0.0021 s⁻¹,1.7 nM,,,
B11,740000 M⁻¹ s⁻¹,0.002 s⁻¹,2.7 nM,,,
B12,520000 M⁻¹ s⁻¹,0.0023 s⁻¹,4.4 nM,,,
B13,,,,64 nM,0.056 s⁻¹,880000 M⁻¹ s⁻¹
B14,520000 M⁻¹ s⁻¹,0.0021 s⁻¹,4 nM,,,
B15,760000 M⁻¹ s⁻¹,0.002 s⁻¹,2.6 nM,,,
B16,1.6e+06 M⁻¹ s⁻¹,0.0019 s⁻¹,1.2 nM,,,
B17,,,,9.5 nM,0.0096 s⁻¹,1e+06 M⁻¹ s⁻¹
